Data on 34 sequences can be found in the Immune Epitope Database (IEDB).

A value given as a limit tells only on which side of the number the result lay.

Assay [1] has as its target HLA-B*15:03. Put plainly: IEDB peptide-MHC binding, purified MHC/competitive/radioactivity; filed as Kd, often an IC50 or EC50 that approximates it; ≥ and ≤ were set here for values at or beyond the usual limits of such assays. To be noted: source organism: Vaccinia virus WR.
Assay [2] has as its target HLA-A*68:02. Described as above.
The target in assay [3] is HLA-A*02:06. The assay is described as above.
Assay [4] concerns the target HLA-A*02:02. Described as above.
For assay [5], the target named is HLA-A*02:03. The description is as above.
For assay [6], the target named is HLA-A*02:01. Described as above.
For assay [7], the target named is HLA-A*11:01. Put plainly: IEDB peptide-MHC binding, purified MHC/competitive/fluorescence; ≥ and ≤ were set here for values at or beyond the usual limits of such assays.
For assay [8], the target named is HLA-A*03:01. The assay is described as above.
Assay [9] concerns the target HLA-A*32:01. Description: IEDB peptide-MHC binding, purified MHC/competitive/radioactivity; filed as Kd, often an IC50 or EC50 that approximates it; ≥ and ≤ were set here for values at or beyond the usual limits of such assays. To be noted: source organism: Vaccinia virus WR.
Assay [10] concerns the target HLA-B*15:01. The assay is described as above. The note with it: source organism: Vaccinia virus WR.
In assay [11] the target is HLA-B*08:01. The description is as above. To be noted: source organism: Vaccinia virus WR.
Assay [12] concerns the target HLA-B*51:01. The assay is described as above. The note with it: source organism: Dengue virus 2 Jamaica/1409/1983.
The target of assay [13] is HLA-B*15:01. Description: IEDB peptide-MHC binding, purified MHC/direct/fluorescence; filed as Kd, often an IC50 or EC50 that approximates it; ≥ and ≤ were set here for values at or beyond the usual limits of such assays. To be noted: source organism: Influenza A virus (A/Duck/Shantou/1881/00(H9N2)).
Assay [14] deals with HLA-A*01:01. Described as above. To be noted: source organism: Influenza A virus (A/Duck/Shantou/1881/00(H9N2)).
Assay [15] concerns the target HLA-A*11:01. The description is as above. To be noted: source organism: Influenza A virus (A/Duck/Shantou/1881/00(H9N2)).
The target in assay [16] is HLA-A*24:03. Described as above. The note with it: source organism: Influenza A virus (A/Duck/Shantou/1881/00(H9N2)).
In assay [17] the target is HLA-A*31:01. The assay is described as above. To be noted: source organism: Influenza A virus (A/Duck/Shantou/1881/00(H9N2)).
The target in assay [18] is HLA-B*27:05. The assay is described as above. The note with it: source organism: Influenza A virus (A/Duck/Shantou/1881/00(H9N2)).
The target in assay [19] is HLA-B*40:01. Described as above. To be noted: source organism: Influenza A virus (A/Duck/Shantou/1881/00(H9N2)).
Assay [20] concerns the target HLA-B*07:02. Described as above. To be noted: source organism: Influenza A virus (A/Duck/Shantou/1881/00(H9N2)).
Assay [21] addresses HLA-A*02:03. Described as above. To be noted: source organism: Influenza A virus(A/swine/Henan/8/2004(H9N2)).
Assay [22] deals with HLA-A*02:12. Described as above. To be noted: source organism: Influenza A virus(A/swine/Henan/8/2004(H9N2)).
In assay [23] the target is HLA-A*02:11. The assay is described as above. The note with it: source organism: Influenza A virus(A/swine/Henan/8/2004(H9N2)).
Assay [24] deals with HLA-A*02:01. Described as above. The note with it: source organism: Influenza A virus (A/Duck/Shantou/1881/00(H9N2)).
Assay [25] concerns the target HLA-A*03:01. The description is as above. To be noted: source organism: Influenza A virus (A/Duck/Shantou/1881/00(H9N2)).
Assay [26] deals with HLA-A*02:19. Described as above. The note with it: source organism: Influenza A virus(A/swine/Henan/8/2004(H9N2)).
The target of assay [27] is HLA-B*58:01. The description is as above. To be noted: source organism: Influenza A virus (A/Duck/Shantou/1881/00(H9N2)).
The target in assay [28] is HLA-A*30:01. Description: IEDB peptide-MHC binding, purified MHC/competitive/radioactivity; filed as Kd, often an IC50 or EC50 that approximates it; ≥ and ≤ were set here for values at or beyond the usual limits of such assays. To be noted: source organism: Vaccinia virus WR.
Assay [29] concerns the target HLA-A*68:01. Described as above. The note with it: source organism: Vaccinia virus WR.
The target of assay [30] is HLA-A*31:01. The assay is described as above. To be noted: source organism: Vaccinia virus WR.
The target in assay [31] is HLA-A*33:01. The description is as above. The note with it: source organism: Vaccinia virus WR.
For assay [32], the target named is HLA-A*02:01. Put plainly: IEDB peptide-MHC binding, purified MHC/competitive/fluorescence; ≥ and ≤ were set here for values at or beyond the usual limits of such assays. To be noted: source organism: Vaccinia virus Copenhagen.
The target of assay [33] is HLA-A*26:01. Description: IEDB peptide-MHC binding, purified MHC/competitive/radioactivity; filed as Kd, often an IC50 or EC50 that approximates it; ≥ and ≤ were set here for values at or beyond the usual limits of such assays. The note with it: source organism: Dengue virus 2 Jamaica/1409/1983.
Assay [34] has as its target HLA-A*24:02. Put plainly: IEDB peptide-MHC binding, purified MHC/competitive/fluorescence; ≥ and ≤ were set here for values at or beyond the usual limits of such assays. The note with it: source organism: Sudan ebolavirus.
The mark [35] stands for this setting: source organism: Mammarenavirus brazilense.
Where [36] appears, read: source organism: Sudan ebolavirus.
[37] abbreviates: source organism: Dengue virus 2 Jamaica/1409/1983.
Where [38] appears, read: source organism: Zaire ebolavirus.
Where [39] appears, read: source organism: Vaccinia virus Copenhagen.
[40] abbreviates: source organism: Trypanosoma cruzi.

In general, Kd refers to a measure of binding affinity in units of concentration. IMVSEHFSL: in assay [1], the Kd turned out to be 5.51 nM.
In the case of NTFVLKKEV, the Kd in [2] (source organism: Dengue virus 3 Martinique/1243/1999) came out at 80.9 nM.
For RGSWATSSF, the dissociation constant Kd in assay [1] is 11.1 nM.
KMAADRGAF: the Kd in assay [1] amounted to 2.5 nM.
As to AINIALIAV, the Kd in [2] (setting [35]) was found to be 1300 nM; in assay [3] (setting [35]) it was 681 nM; in [4] (setting [35]) it was 766 nM; in [5] (setting [35]) it was 46.7 nM.
Regarding SQQNSDSIF, the Kd in assay [1] is 1.87 nM.
With MILVPLITV, the Kd in assay [2] (source organism: Variola virus) is 0.278 nM; in [3] (source organism: Variola virus) it was 2.55 nM; in assay [4] (source organism: Variola virus), 138 nM; in [5] (source organism: Variola virus), 29.6 nM; in assay [6] (source organism: Variola virus), 14.6 nM.
What is called IC50 is the midpoint of a concentration-inhibition curve. A low value points to greater potency. Consider QTNTKATGK, for which the IC50 in assay [7] (setting [36]) was 2.19 µM; in [8] (setting [36]), 14 µM.
Consider SLPRIALVR, for which the IC50 in assay [7] (source organism: Variola virus) was found to be 0.408 µM; in [8] (source organism: Variola virus) it was 0.781 µM.
Take SGNRGSTSF: the Kd in [1] came out at 25.2 nM.
For ETVSEESNV, the Kd in assay [2] (source organism: Homo sapiens) worked out at 44 nM.
In the case of KPNSFTFSF, the values for the Kd in [9] and in assay [1] were 13900 nM and 254 nM, respectively.
On to ALKTELEDTL, for which the Kd in [2] (source organism: Homo sapiens) was no less than 60000 nM.
Take FVYVPELSF: the Kd is 0.963 nM in assay [10] and 203 nM in assay [1].
On to TKFTDFQDF, for which the Kd in [1] is 2.22 nM.
With ILHHHRNVF, the Kd in [11] worked out at 13 nM; in assay [1], 1.33 nM.
With MAISGDDCV, the results for the Kd in assay [2] (setting [37]) and in assay [12] were 65.8 nM and 17.4 µM, respectively.
Regarding SLPPNFSSL, the Kd in assay [13] is 115 nM; in assay [14], no less than 20 µM; in assay [15], no less than 20 µM; in assay [16], 7.5 nM; in [17], no less than 20 µM; in assay [18], no less than 20 µM. Moreover, the Kd was no less than 20 µM in assay [19]; 1650 nM in assay [20]; 3 nM in [21]; 5 nM in [22]; 24 nM in assay [23]; 9.3 nM in assay [24]. Moreover, the Kd in assay [25] is no less than 20 µM; in [26] it was 124 nM; in [27], no less than 20 µM.
Turning to GERYYFAYI, the Kd in assay [10] is 673 nM; in assay [28], 6620 nM; in assay [11], 6.86 nM; in [9], 19500 nM; in assay [1] it was 238 nM.
As for HGFRFEVKK, the figures for the IC50 in assay [7] (setting [38]) and in [8] (setting [38]) were 0.0865 µM and 2.2 µM, respectively.
On to RKYSDLVPK, for which the IC50 stood at 4.13 µM in assay [7] (setting [36]) and 49.1 µM in assay [8] (setting [36]).
Take FIAFLRFLA: in assay [2] (source organism: Dengue virus 1 Brazil/97-11/1997), the Kd is no more than 1 nM.
TKTLDISSF: in [1], the Kd came to 54.5 nM.
For FIMLEGETK, the Kd was 28.1 nM in assay [29], 17.8 µM in [30] and 4.41 µM in assay [31]. Besides, the IC50 is 4.88 µM in assay [7] (setting [39]), 30.7 µM in assay [32] and no less than 116 µM in [8] (setting [39]).
RSLIIVLLF: the Kd in assay [10] amounted to 194 nM; in [28], 2350 nM; in assay [11], 959 nM; in assay [9], 299 nM; in [1] it was 225 nM.
On the same counts, the results for NMFNISFRF are 43.4 nM, 27.2 nM, 1540 nM, 3.6 nM and 18.5 nM.
In the case of GLLLLLLLLG, the Kd came out at 1790 nM in [2] (setting [40]); 420 nM in assay [3] (setting [40]); 456 nM in assay [4] (setting [40]); 330 nM in [5] (setting [40]); 171 nM in [6] (setting [40]).
For the sequence YKVFTDISM, the Kd in assay [1] amounted to 2.18 nM.
In the case of EIVDLMCHA, the Kd is 44 nM in assay [2] (setting [37]) and 1580 nM in assay [33].
As for MIRILIGFLV, in assay [2] (source organism: Dengue virus 4 Dominica/814669/1981), the Kd amounted to 295 nM.
With TYTILNRKA, the IC50 was no less than 90 µM in assay [7] (setting [36]), 22.1 µM in [34] and no less than 94.9 µM in [8] (setting [36]).
Take ITKGRISDR: the IC50 in assay [7] (setting [36]) is no less than 135 µM; in [8] (setting [36]) it was 66.3 µM.
With FFKQTFGSL, the Kd in assay [10] is 1560 nM; in [28] it was 497 nM; in [11] it was 0.735 nM; in assay [9] it was no less than 55800 nM; in assay [1], 1080 nM.
As to KTIYAVDSF, the Kd in assay [10] is 4.04 nM; in [28], 1390 nM; in [11], no less than 31900 nM; in assay [9], 6.78 nM; in assay [1] it was 321 nM.
